In general, stoichiometry N refers to a count of units in the complex or per binding partner.

The target in test [1] is HexaPro spike without foldon (SARS-CoV-2 (Wuhan-Hu-1)) (UniProt P0DTC2). Nature of the test: SEC.
The target of test [2] is HexaPro, soluble SARS-CoV-2 spike ectodomain carrying a foldon domain (SARS-CoV-2 (Wuhan-Hu-1) | not stated) (UniProt P0DTC2). Nature of the test: SEC. (In gel filtration, larger molecules generally elute earlier.)
Test [3] has the same target. The test is described as follows: SEC-MALS.
In test [4] the target is S-3P, soluble SARS-CoV-2 spike ectodomain with C-terminal foldon trimerization domain (SARS-CoV-2 (Wuhan-Hu-1) | not stated) (UniProt P0DTC2). Nature of the test: SEC.
For test [5] the target is unchanged. Nature of the test: SEC-MALS.
For test [6], the target named is S-locked, soluble SARS-CoV-2 spike ectodomain with the disulfide 413C-987C that locks the RBD in the closed conformation, without heterologous trimerization domain (SARS-CoV-2 (Wuhan-Hu-1)) (UniProt P0DTC2). The test is described as follows: SEC-MALS.

In the case of “HexaPro spike without foldon (from UniProt P0DTC2 14-1208)”, the stoichiometry N in test [1] turned out to be 3.
“HexaPro, soluble SARS-CoV-2 spike ectodomain carrying a foldon domain (from UniProt P0DTC2 14-1208)”: the stoichiometry N in test [2] and in test [3] was 3 in each case.
In the case of “S-3P, soluble SARS-CoV-2 spike ectodomain with C-terminal foldon trimerization domain (from UniProt P0DTC2 14-1208)”, the stoichiometry N in test [4] and in test [5] was 3 throughout.
Regarding “S-locked, soluble SARS-CoV-2 spike ectodomain with the disulfide 413C-987C that locks the RBD in the closed conformation, without heterologous trimerization domain (from UniProt P0DTC2 14-1208)”, in test [6], the stoichiometry N turned out to be 3.

The values are drawn from paper PMC10923862.
